Test results from the nanobody polyreactivity screen of Harvey et al. (2022).

Assay: yeast display, Sf9 membrane polyspecificity reagent, FACS + sequencing; frameworks hold sequencing errors
Outline: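 Polyreactivity labels are assigned by the sorting gate from which each nanobody was recovered. The gates were low and high (top ~1%), set on anti-HA fluorescence for expression and streptavidin fluorescence for reagent binding. Before sorting, galactose-induced (36–48 hours) yeast display cells were stained for 1 hour at 4 °C with 10% biotinylated, detergent-solubilized Sf9 membrane reagent.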

Sequence	polyreactivity (PSR sort gate)
QVQLVESGGGLVQAGGSLRLSCAASGLTIYHYAMGWYRQAPGKERELVAAISWNGGSTYYADSVKGRFTISRDNAKNTVYLQMNSLKPEDTAVYYCAVVFNPHRYTGVLAGYDYWGQGTQVTVSS	high polyreactivity
QVQLVDSGGGLVQAGGSLRLSCAASGYTFDWYNRGWYRQAPGKERELVAAISASGVRTYYADSVKGRFTISRDNAKNTVYFQMNSLKPEDTAVYYCNRVYSTSRITQYEFDYWGQGTQVTVSS	low polyreactivity
QVQLVESGGGLVQAGGSLRLSCAASGITFYTNAMGWYRQAPGKERELVAAISSGDSTNYADSVKGRFTISRDNAKNTVYLQMNSLKPEDTAVYYCAKEATQLVWIGMDYWGQGTQVTVSS	low polyreactivity
QVQLVESGGGLVQAGGSLRLSCAASAITLDGNAMGWYIQAPGKERELVAAITSGGGTNYADSVKGRFTISRDNAKNTVYLEMNSLKQEDTAVYYCAETGRLLTSNYWGLGTQVTVSS	low polyreactivity
QVQLVESAGGVVQAGGSLRLSCAPSGRTFYPYVMGCYRTAPGKERELVARIRWSGSSTYYADSEKGRFTISRDNAKNTVYLQMNSLKPEDTAVYYCNARPSWYVFGSSVHSGMGYWGQGTQVTVSS	high polyreactivity
QVQLVESGGGLVQAGGSLRLSCAASGRTFVTYAMGWYRQAPGQERELVAAISASGGSTYYADSVKGRFTISRDNAKNTVYLQMNSLKPEDTAVYYCAKTYFLATPYGYWGQGTQVTVSS	low polyreactivity
QVQLVESGGGLVQAGGSLRLICAASGRIFIYYAMGWYRQAPGKERELVAAITGRDGSTYYADSVKGRFTISRDNAKNTVDLQKISLKPEDTAVYYCAASRFYFRRTFGGYPKLASYDYWGQGTQVTVSS	low polyreactivity
QVQLVESAAGLVQAGGSLRLSCAASGRIFGSYVMGWYRQAPGKERELVAAISASGGSTYYADSVKGRFTISRDNAKNTVYLQMNSLKPEDTAVYYCAATSIYTWWDLLDYWGQGTQVTVSS	high polyreactivity
QVQLVESGGGLVQAGGSLRLSCAASGGTFGSNAMGWYRQAPGKERELLAAITSRGGSTSYADSVKGRFTISRDYAKNTVYLQMKSLKPEDTAVYYCASVRYYWRPYVVNFDYWGQGTQVTVSS	high polyreactivity
QVQLVQSGGGLVQAGGSLRLSCAASGYILNPYAMGWYRPAPGKERELVAAITSGTITYYADSVKGRFTITRDNAKNTVYLQMNSLKPEDTAVYYCAADSWAHYESYDYWGQGTQVTVSS	low polyreactivity
QVQLVESGGGLVQAGGSLRLSSAASGRTFRYNAMGWYRQAPGKERELVAAISWSGTSTYYADSVKGRFTISRDNAKNTVYLQMNSLKPEDTAVYYCAARGLYDYGYWGQGTQVTVSS	high polyreactivity
QVQLVESGGGLDQAGGSLRLSCPASAITFQLYAKGWYRQAPGKERELVAAISRSGSGTYYADSVKGRFTISRDNAKNTVYLQMHSLKPEDTAVYYCAALGPGYYWGQGTQVTVSS	high polyreactivity
QVQLVESGGGLVQAGGSLRLSCAASGSIFTVYVIGGYRQAPGKEREFVAAITYSGGRTDYADSVKGRFTISRDNAKNTVYLQMNSLKPEDTAVYYCAKVRDVLWRFNYWGQGTQVTVSS	high polyreactivity
QVQLVESGGGLVQAGGSLRLSCAASGLTFGWYTMGWYRQAPGKERELVADITWSGGSTYYADSVKGRFTISRDNAKNTVYLQMNSLKPEDTAVYYCAVRYFVIPWYAYDYWGQGTQVTVSS	low polyreactivity
QVQLVESGGRLVQAGGSLRLSCAASGRTFGKYVMGWYRQAPGKERELVAAISRSGGGTYYADSVKGRFTISRDNAKNTVYLQMNSLKPEDTAVYYCAKGSRSNIFQDSYNYWGQGSQVTVSS	high polyreactivity
QVQLVESGGGLVQAGGSLRLSCAASGRTFSSNAMGWYRQAPGKERELVATITYSGGSTYYADSVKGRFTISRDNAKNTVYLQMNSLKPEDTAVYYCAVRVSTYITKYYYWGQGTQVTVSS	low polyreactivity
QVQLVESGGGLVQAGGSLRLSCAASGRTFRSYAMGWYRQAPGKEREFVAAISRSGASTRYADSVKGRFTISRDNAKNTVYLQMNSLKPEDTAVYYCAKSWRYSINQSYRAGYNYWGQGTQVTVSS	high polyreactivity
QVQLVESRGGLVQAGGSLRLSCAASGSIFGFYAMGWYRQAPGKERELVAAISSDGGSTYYADSVKGRFTISRDNAKNTVYLQMNSLKPEDTAVYYCAAAHGSIYDSTYYEYYYWGQGTQVTVSS	low polyreactivity
QVQLVESGGGLVQAGGSLRLSCAASGLTFGNYAMGWYRQAPGKERELVAAISWGGGITYYADSVKGRFTISRDNAKNTVYLQMNSLKPEDTAVYYCAADVYFKSTPEYLYDYWGQGTQVTVSS	low polyreactivity
QVQLVESGGGLVQAGGSLRLSCAASGRTFYNYAMGWYRQAPGKERELVATITGRGGRTFYAHSVKGRFTISRDNAKNTVYLQMNSLTPEDTAVYYCAAYGSASPYYTLYVEHDYWGQGTQVTVSS	low polyreactivity
QVQLVESGGGLVQAGGSLRLSCAACGRTSSIYAMGWYRQAPGKERELVATITGGAVSTSYADSVKGRFTISRDNAKNTVYLQMNSLKPEDSAVYYCADDHWRYRSRPVNYWGLGTQVTVSS	high polyreactivity
QVQLVESGGGLVQAGGSLRLSCAASGSTFRTNTMGWYRQAPGKERELVAAITGTGGSTYYADSVKGRFTISRDNAKNTVYLQMNSLKPEDTAVYYCAKRYYRWRRDYSWGQGTQVTVSS	high polyreactivity

Sequence	polyreactivity (PSR sort gate)
QVQLVESGGGLVQAGGSLRISCAASGLIFYGYVMGWYRQAPGKEREFVAAITLSGGRTYYADSVKGRFTISRDNAKNTVYLQMNSLKPEDTAVYYCAARGPFRPYGAVGRQYDYWGQGTQVTVSS	high polyreactivity
QVQLVESGGGLVQAGGSLRLSCPASGITFIYYAMGWYRQAPGKEREFVAAINYRGTSTYYADSVKGRFTISRDNPKNTVYLQMNSLKPEDTAVYYCAAGPRRTWYRSLGYSFYKYYYWGQGTQVTVSS	high polyreactivity
QVQLVESGGGLVQAGGSLRLSCAASGRTFWYNAMGWYSPAPGKERELLAVITKSGGSTYYADSVKGRFTISRDNAKNTVYLQMNSLKPEDTAVYYCAADTYVARSNYRYRGFDYWGQGTQVTVSS	high polyreactivity
QVQLVESGGGLVQAGGSLRLSCAASGFIFYRYAMGWYRQAPGKERELVSAISYRGGSTYYADSVKGRFTISRDNAKNTVYLQMNSLKPEDTAVYYCAASLRYYGLEMDYWGQGTQVTVSS	high polyreactivity
QVQLVESGGGLVQAGGSLRLSCAASGRNFAKYAMGWYRQAPGKERELVAAINSSGGSTYYADSVKGRFTISRDNAKNTVYLQMNSLKPEDTAVYYCAALGIGSYRRYSGYDYWGQGTQVTVSS	low polyreactivity
QVQLVESGGGLVQAGGSLRLSCAASGSIFGTNAMGWYRQAPGKEREMVAAISLSTGSTYYADSVKGRFTISRDKAKNTVYLQMNSLKPEDTAVYSCAAYYVTPIYYYLGQGTQVTVSS	low polyreactivity
KVQLVESGGGLVQAGGSLRLSCAASGFIFLGYAMGWYRQAPGKEREFVAVISRSGVRTYYADSVKGRFTISRDNAKNTVYLQMNSLKPEDTAVYYCAARYYSTDLEYWGQGTQVTVSS	high polyreactivity
QVQLVESGGGLVQAGGSLRLRCAASGRTFYYAMGWYRQAPGKERYADSVKGRFTISRDNAKNTVYLQMNSLKPEDTAVYYCAAKVPDPPSLDESDYWGQVTQVTVSS	low polyreactivity
QVQLVESGGGLVQAGGSLRLSCAASGSTFNINAMGWYRPAPRKERELVARIRASGASTYYADSVKGRFTISRDNAKITVYLQMNSLKPDDTAVYYCAAYTYSFRANHDYWGQGTQVTVSS	high polyreactivity
QVQLVESGGGLVQAGGSLLLNCAASGITFAGNAMGWYRQAPGKERELLAAISGSGGSTSYADSVKGRFTISRDDAKNTVYLQMNSLKPEDTAVYYGSAASRLYHWHALFGSWGQGTQVTVSS	low polyreactivity
QVQLVESGGGLVQAGGTLRLSCAASGPMFTLNAMGWYRQAPGKERELVAAINRGGSTYYADSVRGRFTISRDNAKNTVYLQMNSLKPEDTAVYYCAARRRQGGHDYWGQGTQVTVSS	high polyreactivity
QLQLVESGGGLVQAGGSLRLSCAASGNTFLLNAMGWYRQAPGKERELVAGIRWGAGRSYYADSVKGRFTISRDNAMNTVYVQMNSLKAEDTAVYSGAADPWSGSDYWGQGTQVTVSS	low polyreactivity
QVQLVESAAGLVQAGGSLSLSCAASGSILQSYAMGWYRQAPGKERELVAAISGSGGSTYYADSVKGRFTISRDNAKNTVYLQMNSLKPEDTAVYYCAKGPRYRTSRGEFGYWGQGTQVTLSS	low polyreactivity
QVQLVESGGGLVQAGGSLRLSCAASGFIIGYYAMGWYRQAPGKERELVASIRRGGSTYYADSVKGRFTISRDNAKNTVYLQMNSLKPEDTAVYYCAVPYSRFSAFRRWVKYDYWGQGTQVTVSS	high polyreactivity
QVQLVESGGGLVQAGGSLRLSCAASGRIFSGNGMGWYRQAPGKEREFVAAIRFSSGSTYYADSVKGRFTISRDNAKNTVYLQMNSLKPEDTAVYYCARPSIPRRYDYWGQGTQVTVSS	high polyreactivity
QVQLVESGGGLVQAGGSLRLSCAASRRTLGKYVMGRYRQQPGKERELVPAIRSGTNTYYADSVKGRFTISRDNAKNTVYLQMNSLIPEDTAVYYCGAARYTKFDYWGQGTQLTVSS	high polyreactivity
QVQLVESGGGLVQAGGSLRLSCAASGGTFVGYAMGWYRQAPGKERELVASITRRGGNTYYADSVKGRFTISRDNAKNTVYLQMNSLKPEDTAVYYCDRRYYYQYRYDYWGQGTQVTVSS	high polyreactivity
QDQLVESGGGLVQAGGSLRLSCAASGRTYASNAMGWYRQAPGKERELVAAITYSGSSTYYADSVKGRFTISRDNAKNTVYLQMNSLKPEDTAVYYCGKGGRRWTYKTWKGYDYWGQGTQVTVSS	high polyreactivity
QVQLVESGGGLVQEGGSLRLSCAASGRISVRYGMGWYRQAPGKERELVATISQSGGSTYYADSVKGRFTISRDNAKNTVYLQMNSLKPEDTAVYYCAAETDYVRHARKYDFWGQGTQVTVAS	low polyreactivity
QVQLVESGGGLVQAGGSLRLSCAASGSIFRWYDMGWYRQAPGKERELVAAITWSGSTYYADSVKGRFTISRDNAKNTVYLQMNSLKPEDTAVYYCAAGSRYSYAYTMDYWGQGTQVTVSS	high polyreactivity
QVQLVESGGGLVQAGGSLRLSCAASGYIFTYYTMGWYRQAPGKERELVAAITSSGSRTRYADSVKGRFTISRDNAKNTVYLQMNSLKPEDTAVYYCAAVYRLKSGVEWRDSQFGYWGQGTQVTVSS	high polyreactivity
